Data from patent publication US20210038737A1 (OHIO STATE INNOVATION FOUNDATION, published 2021).
Blank lines part the entries; values can stand above or below the binder they belong to. Primed or numbered codes have the meaning given here. [ ]: non-standard residue; d: D form. 1Nal = N[C@@H](Cc1cccc2ccccc12)C(=O)O; 2Nal = N[C@@H](Cc1ccc2ccccc2c1)C(=O)O; FITC′ = fluorescein isothiocyanate; Cha = N[C@@H](CC1CCCCC1)C(=O)O; Tle = CC(C)(C)[C@H](N)C(=O)O

Legend:
[1] = target: T1, CAL PDZ domain (CALP5-His) (UniProt Q9HD26 288-371); assay: FP competition, condition B: probe FAM-…-OH (100 nM) with 500 nM CALP5-His; competitor titrated
Description: Serial dilutions of each competitor peptide were prepared in PBS and the incubation solution was added to each. The combined solutions were gently mixed for 1 h at RT after which 20 uL sample was pipetted into 384-well black-on-black microplates and fluorescence polarization was measured using a TECAN Infinite M1000 plate reader. Data was processed to determine IC₅₀ using GraphPad PRISM ver. 6.0.

[2] = target: T1, CAL PDZ domain (CALP5-His); assay: FP competition, condition A: probe peptide 26 (50 nM) with 100 nM CALP5-His; competitor titrated
[3] = target: T1, CAL PDZ domain (CALP5-His); assay: direct FP, condition C: 50 nM labeled peptide, CALP5-His titrated
Description: Condition C (denoted with superscript ^c): 50 nM labeled peptide was incubated with 2 mM TCEP in PBS at pH 7.4 containing 0.01% Triton-X100. CALP5-His was serially diluted in PBS containing 0.01% Triton-X100 to which was then added the peptide and TCEP solution. This solution was mixed for 1 h at RT then 20 uL was pipetted into 384-well microplates and fluorescence polarization was measured using a TECAN Infinite M1000 plate reader. KD values were calculated using KaleidaGraph v. 3.6 using the equation: […]

IC50 [1]: 1.77 µM
B1: peptide 14: Ac-Cys-Arg-Arg-Arg-Phe-(1-Nal)-Gln-Cys-Thr-Arg-Tle-OH (peptide)
peptide: Ac-CRRRF[1Nal]QCTR[Tle]-OH
modifications: cysteine pairing not given here
notes: Synthetic peptide; assayed with DTT (reduced, linear); also called Compd 14; Compound 14

IC50 [2]: 10.3 µM
B2: peptide 12: Ac-Arg-Arg-Phe-Trp-(D-Cys)-Cys-Thr-Arg-Tle-OH (peptide)
peptide: Ac-RRFW[dC]CTR[Tle]-OH
modifications: cysteine pairing not given here
notes: Synthetic peptide; also called Compd 12; Compound 12

IC50 [1]: 1.49 µM
B3: peptide 15: Ac-Cys-Arg-Arg-Arg-Phe-(2-Nal)-Gln-Cys-Thr-Arg-Tle-OH (peptide)
peptide: Ac-CRRRF[2Nal]QCTR[Tle]-OH
modifications: cysteine pairing not given here
notes: Synthetic peptide; assayed with DTT (reduced, linear); also called Compd 15; Compound 15

IC50 [2]: 8.01 µM
B6: peptide 13: Ac-Arg-Arg-Phe-Trp-Cys-Cys-Thr-Arg-Tle-OH (peptide)
peptide: Ac-RRFWCCTR[Tle]-OH
modifications: cysteine pairing not given here
notes: Synthetic peptide; also called Compd 13; Compound 13

IC50 [2]: 7.39 µM
B8: peptide 11: Ac-Arg-Arg-Phe-Trp-(D-Pro)-Cys-Thr-Arg-Tle-OH (peptide)
peptide: Ac-RRFW[dP]CTR[Tle]-OH
SMILES: CC(=O)N[C@@H](CCCNC(=N)N)C(=O)N[C@@H](CCCNC(=N)N)C(=O)N[C@@H](Cc1ccccc1)C(=O)N[C@@H](Cc1c[nH]c2ccccc12)C(=O)N1CCC[C@@H]1C(=O)N[C@@H](CS)C(=O)N[C@H](C(=O)N[C@@H](CCCNC(=N)N)C(=O)N[C@H](C(=O)O)C(C)(C)C)[C@@H](C)O
notes: Synthetic peptide; also called Compd 11; Compound 11

Continued, binder first:

B4: peptide 6: FITC-Cys-Arg-Arg-Arg-Phe-Trp-Gln-Cys-Thr-Arg-Tle-OH (peptide)
peptide: {FITC′}-CRRRFWQCTR[Tle]-OH
modifications: not fully specified; printed as FITC-Cys-Arg-Arg-Arg-Phe-Trp-Gln-Cys-Thr-Arg-Tle-OH; cysteine pairing not given here
notes: Synthetic labeled peptide; assayed with 2 mM TCEP (reduced, linear); also called Compd 6; Compound 6
Kd [3]: 0.996 µM

B5: peptide 3: Ac-Arg-Arg-Phe-Trp-Gln-Cys-Thr-Arg-Cha-OH (peptide)
peptide: Ac-RRFWQCTR[Cha]-OH
SMILES: CC(=O)N[C@@H](CCCNC(=N)N)C(=O)N[C@@H](CCCNC(=N)N)C(=O)N[C@@H](Cc1ccccc1)C(=O)N[C@@H](Cc1c[nH]c2ccccc12)C(=O)N[C@@H](CCC(N)=O)C(=O)N[C@@H](CS)C(=O)N[C@H](C(=O)N[C@@H](CCCNC(=N)N)C(=O)N[C@@H](CC1CCCCC1)C(=O)O)[C@@H](C)O
notes: Synthetic peptide; also called Compd 3; Compound 3
IC50 [2]: 7.88 µM

B7: peptide 7: Ac-Arg-Arg-Phe-Trp-Gln-Cys-Thr-Leu-Tle-OH (peptide)
peptide: Ac-RRFWQCTL[Tle]-OH
modifications: not fully specified; printed as Ac-Arg-Arg-Phe-Trp-Gln-Cys-Thr-Leu-Tle-OH
notes: Synthetic peptide; also called Compd 7; Compound 7
IC50 [2]: 2.02 µM

B9: peptide 2: Ac-Arg-Arg-Phe-Trp-Gln-Cys-Thr-Arg-Ile-OH (peptide)
peptide: Ac-RRFWQCTRI-OH
notes: Synthetic peptide; also called Compd 2; Compound 2
IC50 [2]: 3.69 µM
